Source: PMC2630241
“And” between values parts separate entries of the source, which are not always exact repeats. Equal entries are not always repeated.

Legend:
[1] = molecular target: Selenomethionine substituted TRPM7cc (rat) (UniProt Q925B3); assay: crystal structure
[2] = molecular target: TRPM7 coiled-coil assembly domain (TRPM7cc), rat TRPM7 residues 1230-1282 (rat) (UniProt Q925B3); assay: crystal structure
[3] = molecular target: TRPM7 coiled-coil assembly domain (TRPM7cc), rat TRPM7 residues 1230-1282 (rat) (UniProt Q925B3); assay: SEC
[4] = molecular target: TRPM7 coiled-coil assembly domain (TRPM7cc), rat TRPM7 residues 1230-1282 (rat) (UniProt Q925B3); assay: AUC

Substance | stoichiometry N [1] | stoichiometry N [2] | stoichiometry N [3] | stoichiometry N [4]
Selenomethionine substituted TRPM7cc (from UniProt Q925B3 1230-1282) (domain or fragment) | 4 | – | – | –
TRPM7 coiled-coil assembly domain (TRPM7cc), rat TRPM7 residues 1230-1282 (from UniProt Q925B3 1230-1282) (domain or fragment) | – | 4 | 4 | 4.1 and 3.7
